The numbers were not newly measured in PMC9079180, which cites them from elsewhere.

Usually Kd stands for the equilibrium constant for the complex coming apart.

The data set addresses tau (Homo sapiens).

Sequence of Hsp70 (P0A6Z0 2-638): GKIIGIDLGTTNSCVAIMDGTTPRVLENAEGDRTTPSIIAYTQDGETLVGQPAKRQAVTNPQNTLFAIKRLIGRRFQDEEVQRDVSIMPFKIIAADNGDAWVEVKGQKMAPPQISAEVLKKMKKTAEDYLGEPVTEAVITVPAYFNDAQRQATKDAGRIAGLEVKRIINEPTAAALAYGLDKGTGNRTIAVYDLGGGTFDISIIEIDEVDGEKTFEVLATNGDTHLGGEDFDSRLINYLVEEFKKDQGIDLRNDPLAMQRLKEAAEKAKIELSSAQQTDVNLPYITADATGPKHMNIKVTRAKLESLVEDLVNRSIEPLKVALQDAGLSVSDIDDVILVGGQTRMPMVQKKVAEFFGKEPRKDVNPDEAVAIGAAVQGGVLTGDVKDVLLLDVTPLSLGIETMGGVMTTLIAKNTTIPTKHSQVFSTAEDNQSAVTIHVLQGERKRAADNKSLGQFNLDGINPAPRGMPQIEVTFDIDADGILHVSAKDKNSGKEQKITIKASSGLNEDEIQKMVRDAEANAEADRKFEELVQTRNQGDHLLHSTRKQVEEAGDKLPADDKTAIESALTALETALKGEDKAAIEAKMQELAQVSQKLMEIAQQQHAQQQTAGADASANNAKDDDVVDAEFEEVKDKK

Consider Hsp70 (from UniProt P0A6Z0), for which the Kd is 400 nM.
